This experiment addresses EPHB4 peptide on HLA-A*02:01 (human). The experiment in a line: activation reporter or marker.

B1: Clone 4, 7, 34 (Table 10) (TCR, V domains shown)
Valpha: GEQVEQRPPHLSVREGDSAFIICTYTDSATAYFYWYKQEPGAGLQLLMSVFSNVDRKEEQGLTVLLNKKDKRLSLNLTAAHPGDSAVYFCAVGNSNNRIFFGDGTQLVVKP
Vbeta: NTKITQSPRYLILGRANKSLECEQHLGHNAMYWYKQSAEKPPELMFLYNLKQLIRNETVPSRFIPECPDSSKLLLHISAVDPEDSAVYFCASSQLGSSAETLYFGSGTRLTVL
For the molecule B1, the binding result is listed as “recognises”.

These data come from patent US20250339504A1 (published 2025).
